The Kd is the free concentration of one partner at which half of the binding sites on the other are occupied at equilibrium, for simple one-to-one binding. A high value points to weaker binding.

The values that follow come from PMC4063720.

Series [1] deals with Hfq (Pseudomonas aeruginosa PAO1) (UniProt Q9HUM0). Briefly: competition. The settings on record: EMSA: 10 mM Tris-HCl pH 8.0, 10 mM MgCl2, 60 mM NaCl, 10 mM NaH2PO4, 10 mM DTT, 25 ng tRNA in 10 ul, 37 C 30 min; 4% PAGE in Tris-borate; filter binding buffer …. For orientation: In EMSA bound probe runs differently from free probe, usually more slowly.
The target of series [2] is HfqK56A K56A (Pseudomonas aeruginosa PAO1) (UniProt Q9HUM0). Briefly: EMSA. The settings on record: EMSA: 10 mM Tris-HCl pH 8.0, 10 mM MgCl2, 60 mM NaCl, 10 mM NaH2PO4, 10 mM DTT, 25 ng tRNA in 10 ul, 37 C 30 min; 4% PAGE in Tris-borate; filter binding buffer ….
The target of series [3] is HfqY25D Y25D (Pseudomonas aeruginosa PAO1) (UniProt Q9HUM0). Briefly: EMSA. The settings on record: EMSA: 10 mM Tris-HCl pH 8.0, 10 mM MgCl2, 60 mM NaCl, 10 mM NaH2PO4, 10 mM DTT, 25 ng tRNA in 10 ul, 37 C 30 min; 4% PAGE in Tris-borate; filter binding buffer ….
Series [4] has as its target Hfq (Pseudomonas aeruginosa PAO1) (UniProt Q9HUM0). Briefly: EMSA. The settings on record: EMSA: 10 mM Tris-HCl pH 8.0, 10 mM MgCl2, 60 mM NaCl, 10 mM NaH2PO4, 10 mM DTT, 25 ng tRNA in 10 ul, 37 C 30 min; 4% PAGE in Tris-borate; filter binding buffer ….
The target is the same in series [5]. As to the kind of experiment: filter binding. The conditions noted are these: EMSA: 10 mM Tris-HCl pH 8.0, 10 mM MgCl2, 60 mM NaCl, 10 mM NaH2PO4, 10 mM DTT, 25 ng tRNA in 10 ul, 37 C 30 min; 4% PAGE in Tris-borate; filter binding buffer ….
Series [6] relates to Hfq (Pseudomonas aeruginosa PAO1). Briefly: filter binding. The settings on record: Hfq-hexamer concentration; duplicate; EMSA: 10 mM Tris-HCl pH 8.0, 10 mM MgCl2, 60 mM NaCl, 10 mM NaH2PO4, 10 mM DTT, 25 ng tRNA in 10 ul, 37 C 30 min; 4% PAGE in Tris-borate; filter binding buffer ….

For the substance “GGCACAACAACAAUAACAAGCAACGACGAAGACAAUAAAAACAACACGUAACGACUCCAGCACAACAAAAACAAAAUCGCGGAGGCGCAGCUAACUGAUUCUUUUGGAGAGGAGUUGCUGUCGGGACCCGUCCCGCAGCCAGUCGGAAGAAG [CrcZ151 RNA]”, the binding result is on record as “binds” in series [1], “binds” in series [2], “binds more weakly” in series [3] and “binds” in series [4].

On to “GCGUACAGGGAACACGCAACCCCGAAGGAUCGGGGAAGGGACGUCGCCAGGGAGGCGAUUCAUCAGGAUGAUGACGAGGGACUGAAGAGUGGGCGGGGUAAUACCCCGCCCCUUUUUUUUGCCUGCCGUUUUACUCGUCGCCCUGCAGUUU [RsmZ RNA]”, for which, in series [1], the binding entry was “no binding”.

Substance “GAUCAGGUCGUGCGCAUCAGCGUCGAUGUCGCGGGACCGAACCUAACGCAUACGUACAGAGCAAAUGGGCUCUCCCGGGGUUACCCGGGAGGGCCUUUUUUCGUCCCGAAAAAAUAACAACAAGAGGUGAUAUCCAUGCGUCACGGCGAUAUUUCCUGCAGAAAAAA [amiE -134-+20 RNA]” returned a Kd in series [5] of 67 nM. The binding entry is given as “binds” in series [2], “no binding” in series [3] and “binds” in series [4].

On to amiE -134-+20 RNA, for which the Kd in series [6] is 67 nM.
